The target in one assay is Rhesus-D antigen (human) (UniProt Q02161). Nature of the assay: phage bound to Rh-D positive red blood cells, eluted with citric acid, titred on ampicillin plates; titre prior to selection 1.0 × 10^8.
In assay [1] the target is bovine thyroglobulin (Sigma) (bovine) (UniProt P01267). Put plainly: phage ELISA, 200 µg/ml thyroglobulin coating. On the technique in general: In an ELISA, binding on a coated surface is turned into a signal by an enzyme label.
Assay [2] addresses T1, turkey egg-white lysozyme (turkey, UniProt P00703 19-147).
T1 construct: also called turkey egg lysozyme; turkey lysozyme
Put plainly: heading of the table of deduced sequences.

T1 sequence (P00703 19-147 limits assumed): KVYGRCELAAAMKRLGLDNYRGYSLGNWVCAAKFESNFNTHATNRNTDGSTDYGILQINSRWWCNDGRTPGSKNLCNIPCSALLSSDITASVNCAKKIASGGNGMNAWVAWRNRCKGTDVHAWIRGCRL
Rhesus-D antigen (human), sequence (Q02161 2-417): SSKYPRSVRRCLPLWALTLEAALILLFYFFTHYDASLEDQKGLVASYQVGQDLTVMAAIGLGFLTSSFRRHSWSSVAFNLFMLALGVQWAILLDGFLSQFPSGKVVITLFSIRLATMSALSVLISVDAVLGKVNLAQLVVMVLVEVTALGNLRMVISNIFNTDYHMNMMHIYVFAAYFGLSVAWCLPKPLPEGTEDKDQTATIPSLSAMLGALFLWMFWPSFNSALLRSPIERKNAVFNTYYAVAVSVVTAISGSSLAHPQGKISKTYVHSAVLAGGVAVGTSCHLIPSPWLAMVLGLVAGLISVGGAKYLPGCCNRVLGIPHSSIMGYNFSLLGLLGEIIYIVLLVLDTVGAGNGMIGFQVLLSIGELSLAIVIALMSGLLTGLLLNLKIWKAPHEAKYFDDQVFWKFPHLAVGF
bovine thyroglobulin (Sigma) (bovine), sequence (P01267 20-2769 limits assumed): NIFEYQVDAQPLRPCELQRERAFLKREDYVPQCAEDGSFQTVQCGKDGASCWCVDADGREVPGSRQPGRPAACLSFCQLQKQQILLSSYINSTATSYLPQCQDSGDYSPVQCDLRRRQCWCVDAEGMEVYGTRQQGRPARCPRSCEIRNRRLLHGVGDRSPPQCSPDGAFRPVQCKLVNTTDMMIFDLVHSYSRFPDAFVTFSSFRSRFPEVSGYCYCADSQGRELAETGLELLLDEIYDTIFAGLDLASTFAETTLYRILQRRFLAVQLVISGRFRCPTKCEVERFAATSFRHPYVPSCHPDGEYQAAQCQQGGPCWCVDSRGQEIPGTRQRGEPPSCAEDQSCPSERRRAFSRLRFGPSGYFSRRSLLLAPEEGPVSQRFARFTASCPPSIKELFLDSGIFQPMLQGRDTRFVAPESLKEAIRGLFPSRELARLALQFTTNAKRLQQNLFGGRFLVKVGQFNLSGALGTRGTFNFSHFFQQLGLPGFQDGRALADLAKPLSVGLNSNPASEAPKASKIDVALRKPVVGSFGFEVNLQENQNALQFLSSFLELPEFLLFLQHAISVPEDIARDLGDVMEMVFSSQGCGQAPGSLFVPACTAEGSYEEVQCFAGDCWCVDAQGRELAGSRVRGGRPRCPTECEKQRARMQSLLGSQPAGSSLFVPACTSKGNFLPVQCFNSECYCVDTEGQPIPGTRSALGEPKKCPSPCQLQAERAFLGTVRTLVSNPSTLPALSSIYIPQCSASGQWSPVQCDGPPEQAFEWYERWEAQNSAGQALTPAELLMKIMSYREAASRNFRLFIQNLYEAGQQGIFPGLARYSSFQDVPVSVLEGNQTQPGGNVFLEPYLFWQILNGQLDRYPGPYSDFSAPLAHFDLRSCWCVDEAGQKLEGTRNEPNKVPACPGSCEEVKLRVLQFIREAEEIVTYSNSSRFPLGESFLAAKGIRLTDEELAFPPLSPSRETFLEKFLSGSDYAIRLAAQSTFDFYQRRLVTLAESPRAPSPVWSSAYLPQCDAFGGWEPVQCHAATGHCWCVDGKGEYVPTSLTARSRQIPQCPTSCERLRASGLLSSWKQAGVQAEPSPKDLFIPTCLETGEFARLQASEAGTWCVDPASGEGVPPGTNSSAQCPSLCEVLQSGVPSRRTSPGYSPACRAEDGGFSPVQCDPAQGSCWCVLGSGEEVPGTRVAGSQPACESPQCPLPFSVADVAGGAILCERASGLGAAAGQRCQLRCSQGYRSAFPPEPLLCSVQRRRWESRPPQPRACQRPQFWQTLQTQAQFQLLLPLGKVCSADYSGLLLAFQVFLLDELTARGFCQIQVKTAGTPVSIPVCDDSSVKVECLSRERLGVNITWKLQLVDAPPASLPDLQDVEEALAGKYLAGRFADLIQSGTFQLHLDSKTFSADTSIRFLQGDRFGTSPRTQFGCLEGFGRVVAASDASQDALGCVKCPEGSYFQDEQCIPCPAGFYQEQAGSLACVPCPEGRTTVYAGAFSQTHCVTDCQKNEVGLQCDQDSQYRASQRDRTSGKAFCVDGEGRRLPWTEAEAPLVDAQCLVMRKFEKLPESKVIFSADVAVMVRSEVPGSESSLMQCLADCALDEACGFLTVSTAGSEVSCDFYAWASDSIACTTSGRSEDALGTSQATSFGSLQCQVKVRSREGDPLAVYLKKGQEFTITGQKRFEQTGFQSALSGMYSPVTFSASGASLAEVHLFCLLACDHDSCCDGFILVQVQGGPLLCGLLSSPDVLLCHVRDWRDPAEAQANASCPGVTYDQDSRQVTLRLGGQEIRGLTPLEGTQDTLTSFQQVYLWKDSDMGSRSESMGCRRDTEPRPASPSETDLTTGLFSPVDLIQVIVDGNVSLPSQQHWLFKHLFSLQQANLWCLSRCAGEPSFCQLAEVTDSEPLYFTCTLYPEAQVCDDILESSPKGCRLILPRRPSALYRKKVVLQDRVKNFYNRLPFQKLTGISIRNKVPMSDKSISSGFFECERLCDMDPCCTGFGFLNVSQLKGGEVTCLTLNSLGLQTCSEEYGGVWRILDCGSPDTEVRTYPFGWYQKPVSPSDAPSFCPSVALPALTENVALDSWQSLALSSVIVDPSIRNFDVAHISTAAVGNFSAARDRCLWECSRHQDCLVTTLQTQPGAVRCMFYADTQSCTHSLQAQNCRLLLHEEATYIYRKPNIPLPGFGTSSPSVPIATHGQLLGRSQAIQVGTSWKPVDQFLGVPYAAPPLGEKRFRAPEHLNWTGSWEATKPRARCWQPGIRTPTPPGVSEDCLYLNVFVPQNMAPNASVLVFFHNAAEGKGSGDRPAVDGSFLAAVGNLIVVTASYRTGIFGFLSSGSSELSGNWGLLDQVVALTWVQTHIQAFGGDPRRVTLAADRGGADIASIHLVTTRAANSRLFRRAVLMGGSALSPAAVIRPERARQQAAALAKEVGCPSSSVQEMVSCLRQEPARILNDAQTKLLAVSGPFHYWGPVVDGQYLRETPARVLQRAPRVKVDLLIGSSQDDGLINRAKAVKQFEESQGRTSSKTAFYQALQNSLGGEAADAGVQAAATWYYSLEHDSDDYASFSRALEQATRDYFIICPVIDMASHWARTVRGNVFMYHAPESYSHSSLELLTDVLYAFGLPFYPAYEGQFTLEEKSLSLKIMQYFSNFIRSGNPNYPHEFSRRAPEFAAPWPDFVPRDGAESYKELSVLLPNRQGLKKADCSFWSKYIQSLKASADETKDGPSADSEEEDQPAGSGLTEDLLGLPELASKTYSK

Molecule “Fog-B Fab fragment displayed on the surface of phage (pHEN1)” yielded a titre of phage eluted after selection on Rh-D positive cells with Rhesus-D antigen (human) of 6e+06. In the case of “phage control (vector pCAT3) (from UniProt P03661 19-424)”, in assay [1], the ELISA OD stood at 0.07 O.D.

B1: Lysozyme binder VH14.1 / VL14.1 (scFv, V domains shown)
VH: QVQLQESGPGLVKPSETLSLVCTVSGGSLSFSYWGWIRQPPGKGLEWIGYISHRGTDYNSSLQSRVTISADTSKNQFSLKLSSVTAADTAVYYCARSFSNSFFFGYWGQGT
VL: SSELTQDPAVSVAFGQTVRITCQGDSLRSSYASWYQQKPGQAPLLVIYGENSRPSGIPDRFSGSSSGNTASLTITGAQAEDEADYYCNSRDSRGTHLEVFGG
notes: Human scFv in pHEN1 on phage; Paired by common number
With B1, in assay [2], the binding result is on record as “binds”.

(Values after US6806079.)
